Test results published in patent publication US6890900B2, “Methods for treating or preventing diseases of the oral cavity” (Campina B.V., priority 2001, dated 2005).

Columns and labels:
[1] = system: Streptococcus pyogenes ATCC #19615; test: LF/GMP assay, viable plate count (pour plate) of broth culture; type: cell-based; set-up: key to MIBC: NCF: No Effective Concentration Found; conditions: 35° C.; for Colony Counts: viable plate count
Experimental: Bacterial strains used in this study were Pseudomonas aeruginosa ATCC #27853, Streptococcus mutans ATCC #33535, Streptococcus pyogenes ATCC #19615, and Actinobacillus haemophilus ATCC #43717 and an oral swab from a healthy adult. Bacteria were grown on blood/BHT media (Brain Heart Infusion Agar with protease peptone, sodium chloride, glucose, di-sodium phosphate, and agar, Oxoid, Hampshire England, Sheep's Blood) in the presence of 5% CO2 at 35° C. […] The 0.5 McFarland value is approximately equivalent to 1.0×10^8 organisms. One ml of the appropriate bacterial dilution was taken using a sterile pipette and introduced into 8 ml of sterilized BHI broth. […] By pipette, 9 ml of broth was placed into medium test tubes as means of a control and 8 ml test tubes were prepared for the concentration tests). […] This solution was filtered through a 0.45 μm filter. […] Example for calculating 2,500 ppm dilution (1,000 ppm=0.1%): [formula] [formula] [formula] To study the kinetics of LF/GMP binding, each strain of bacteria was taken separately with a sterile pipette and placed into an 8 ml BHI broth test tube, vortexed, and incubated in the presence of 1 ml of LF or GMP for 18-24 hours at 35° C. with 5% CO2. In the combination procedure, 0.5 ml of both LF and […] were taken as 1 ml inoculations. This technique was used to determine the density of living (viable) cells in inoculated broth cultures. It involves plating a bacterial sample and counting the resulting colonies after incubation. A serial dilution of the original broth was taken prior to plating. The serial dilution is necessary to reduce the density of organisms in order to create countable plates. Only plates containing between 25 and 250 colonies are considered countable. Cell densities are traditionally recorded as CFU (colony forming unit)/ml. […] Formula: [formula] The assays required the use of a pour plate technique. The pour plate technique adds a step to the conventional serial dilution. The 1 ml of dilution is added to a warm emulsion of dilute nutrient (BHI) agar to produce an agar overlay in the petri plates. After incubation, the bacterial growth covers the entire plate but individual cellular movement has been restricted by the soft agar overlay. Each colony formed is assumed to have originated from a single CFU. The plates were gently mixed, inverted, and incubated for 18-24 hour at 35° C. Using a control (one broth tube inoculated with a bacterial strain, but no LF), the effectiveness of LF was examined. Each test tube containing a specified amount of LF (50, 100, 250, 500, 1,000 ppm and 3000 ppm) was diluted and plates were poured. After incubating the plates for 24 hours at 35° C. with 5% CO2 (the normal conditions of an oral cavity), the bacterial recovery count was taken and the results were compared to the control. A. haemophilus, S. mutans, S. pyrogenes and an oral culture were tested at 35° C. Pseudomonas aeruginosa was tested at both room temperature and 35° C. with 5% CO2. This was done because P. aeruginosa is not strictly an oral pathogen. It is commonly found in the environment in various conditions. It can be found in the environment and oral intake can cause inflammation in the oral cavity. Most normal oral bacteria are only found in the mouth and are not taken in from outside factors. Therefore, P. aeruginosa is a threat in both temperature settings. Table 1 depicts the minimum inhibitor concentration (MBEC) for each of the bacterial strains at 35° C. S. pyogenes and the oral culture were not effected by LF at any tested concentration. […] (see Table 2).

[2] = system: Pseudomonas aeruginosa ATCC #27853; test: as above; type: cell-based; set-up: key to MIBC: NCF: No Effective Concentration Found; conditions: for Colony Counts: viable plate count
Experimental: Bacterial strains used in this study were Pseudomonas aeruginosa ATCC #27853, Streptococcus mutans ATCC #33535, Streptococcus pyogenes ATCC #19615, and Actinobacillus haemophilus ATCC #43717 and an oral swab from a healthy adult. Bacteria were grown on blood/BHT media (Brain Heart Infusion Agar with protease peptone, sodium chloride, glucose, di-sodium phosphate, and agar, Oxoid, Hampshire England, Sheep's Blood) in the presence of 5% CO2 at 35° C. Bacteria were harvested by swabbing inoculated growth plates after 24 hours and diluting the colonies in 9 ml of deionized water (DI water) until a suspension of 0.5 McFarland Turbidity Standard was reached using the nephelometer (McFarland Turbidity Meter). The 0.5 McFarland value is approximately equivalent to 1.0×10^8 organisms. One ml of the appropriate bacterial dilution was taken using a sterile pipette and introduced into 8 ml of sterilized BHI broth. (Preparation of BHI broth: 37 g+1,000 ml DI water, Difco Laboratories. By pipette, 9 ml of broth was placed into medium test tubes as means of a control and 8 ml test tubes were prepared for the concentration tests).
This solution was filtered through a 0.45 μm filter. […] Example for calculating 2,500 ppm dilution (1,000 ppm=0.1%): [formula] [formula] [formula] […]
One mL of each bacterial strain, plus one mL of sialic acid solution (1,000 ppm) were inoculated into test tubes filled with 8 mL of BHI broth. Each test tube was vortexed, incubated for 24 hours at 35° C. with 5% CO2, and then pour plated in BHI agar to obtain a plate count.
This technique was used to determine the density of living (viable) cells in inoculated broth cultures. It involves plating a bacterial sample and counting the resulting colonies after incubation. A serial dilution of the original broth was taken prior to plating. The serial dilution is necessary to reduce the density of organisms in order to create countable plates. Only plates containing between 25 and 250 colonies are considered countable. Cell densities are traditionally recorded as CFU (colony forming unit)/ml. By convention, when 1.0 ml is inoculated onto a plate, the dilution factor (DF) is recorded as tenfold greater. Formula: [formula]
The assays required the use of a pour plate technique. The pour plate technique adds a step to the conventional serial dilution. The 1 ml of dilution is added to a warm emulsion of dilute nutrient (BHI) agar to produce an agar overlay in the petri plates. After incubation, the bacterial growth covers the entire plate but individual cellular movement has been restricted by the soft agar overlay. Each colony formed is assumed to have originated from a single CFU. The plates were gently mixed, inverted, and incubated for 18-24 hour at 35° C. […]

B1: LF: Bovine lactoferrin, iron-binding glycoprotein purified from milk, provided by DMV International (protein, UniProt P24627 20-708, looked up)
Lactotransferrin: APRKNVRWCTISQPEWFKCRRWQWRMKKLGAPSITCVRRAFALECIRAIAEKKADAVTLDGGMVFEAGRDPYKLRPVAAEIYGTKESPQTHYYAVAVVKKGSNFQLDQLQGRKSCHTGLGRSAGWIIPMGILRPYLSWTESLEPLQGAVAKFFSASCVPCIDRQAYPNLCQLCKGEGENQCACSSREPYFGYSGAFKCLQDGAGDVAFVKETTVFENLPEKADRDQYELLCLNNSRAPVDAFKECHLAQVPSHAVVARSVDGKEDLIWKLLSKAQEKFGKNKSRSFQLFGSPPGQRDLLFKDSALGFLRIPSKVDSALYLGSRYLTTLKNLRETAEEVKARYTRVVWCAVGPEEQKKCQQWSQQSGQNVTCATASTTDDCIVLVLKGEADALNLDGGYIYTAGKCGLVPVLAENRKSSKHSSLDCVLRPTEGYLAVAVVKKANEGLTWNSLKDKKSCHTAVDRTAGWNIPMGLIVNQTGSCAFDEFFSQSCAPGADPKSRLCALCAGDDQGLDKCVPNSKEKYYGYTGAFRCLAEDVGDVAFVKNDTVWENTNGESTADWAKNLNREDFRLLCLDGTRKPVTEAQSCHLAVAPNHAVVSRSDRAAHVKQVLLHQQALFGKNGKNCPDKFCLFKSETKNLLFNDNTECLAKLGGRPTYEEYLGTEYVTAIANLKKCSTSPLLEACAFLTR
**Q.** Which results are given for B1?
**A.** Colony Counts ([1]; 50 ppm, 24 h): 5.8 × 10^7; Colony Counts ([1]; 100 ppm, 24 h): 1.5 × 10^7; Colony Counts ([1]; 500 ppm, 24 h): 7.8 × 10^7; Colony Counts ([1]; 3,000 ppm, 24 h): 1.7 × 10^8; Total Log Reduction ([1]; Lactoferrin/GMP 250/0 ppm (LF alone)): 0 log; Total Log Reduction ([1]; Lactoferrin/GMP 3,000/0 ppm (LF alone)): 0 log; # Log Reductions ([1]; at the MIBC, vs control): 0 log; effect on growth (in words) ([1]; single agent, any tested concentration): not effected; MIBC ([1]; single agent, 24 h, 5% CO2): NCF; Colony Counts ([2]; 50 ppm, 35° C., 24 h): 4.6 × 10^8; Colony Counts ([2]; 100 ppm, 35° C., 24 h): 3.6 × 10^8; Colony Counts ([2]; 250 ppm, 35° C., 24 h): 2.6 × 10^8; Colony Counts ([2]; 1,000 ppm, 35° C., 24 h): 3.2 × 10^8; Colony Counts ([2]; 3,000 ppm, 35° C., 24 h): 1.2 × 10^8; Total Log Reduction ([2]; Lactoferrin/GMP 250/0 ppm (LF alone), 23° C. (room temperature)): 1 log; Total Log Reduction ([2]; Lactoferrin/GMP 250/0 ppm (LF alone), 35° C.): 0 log; Total Log Reduction ([2]; Lactoferrin/GMP 3,000/0 ppm (LF alone), 23° C. (room temperature)): 0 log; Total Log Reduction ([2]; Lactoferrin/GMP 3,000/0 ppm (LF alone), 35° C.): 0 log; # Log Reductions ([2]; at the MIBC, vs control, 35° C.): 0 log; MIBC ([2]; single agent, 35° C., 24 h, 5% CO2): NCF
